Experiment [1] addresses L1-10_NLuc antigen (Strep-MBP-L1-10-Nluc) (human). Description: luminescence ELISA, M22 directly coated, L1-10_NLuc titrated.
Experiment [2] has the same target. As to the kind of experiment: competition ELISA, soluble M22 titrated with L1-10_NLuc at 1 µg/mL; competitor M22 coated on the plate.
Experiment [3] shares this target. As to the kind of experiment: competition ELISA, soluble M22 titrated with L1-10_NLuc at 0.2 µg/mL; competitor M22 coated on the plate.
Experiment [4] has the same target. Description: competition ELISA, soluble M22 titrated with L1-10_NLuc at 0.1 µg/mL; competitor M22 coated on the plate.

Substance “M22, unlabeled (thyroid-stimulating TSHR-specific monoclonal antibody)” gave an RLU in experiment [1] of less than 7e+06 RLU. For the same substance, the IC50 stood at 0.03 µg/mL in experiment [2], 0.012 µg/mL in experiment [3] and 0.008 µg/mL in experiment [4].

For the origin of these results see patent US20210188971A1.
